Source: US20210324028A1 (Pfizer, published 2021)
Like-named read-outs stand apart in the source and are kept apart here.

What was measured:
[1] = target: T1, IL-15 signaling receptor on 32D[pRF770+pRF791] cells (human CD122 plus mouse CD132) (human; mouse, UniProt P14784 27-551; P34902 23-369); assay: flow cytometry, Alexa647-labelled protein on uninduced 32D[pRF770+pRF791] cells (human CD122 plus mouse CD132), 4 C 30 min, % A647-positive cells
T1 construct: whole, on cells; also called CD122 plus CD132; PD-1(low) cells
T1 sequence (looked up) 1: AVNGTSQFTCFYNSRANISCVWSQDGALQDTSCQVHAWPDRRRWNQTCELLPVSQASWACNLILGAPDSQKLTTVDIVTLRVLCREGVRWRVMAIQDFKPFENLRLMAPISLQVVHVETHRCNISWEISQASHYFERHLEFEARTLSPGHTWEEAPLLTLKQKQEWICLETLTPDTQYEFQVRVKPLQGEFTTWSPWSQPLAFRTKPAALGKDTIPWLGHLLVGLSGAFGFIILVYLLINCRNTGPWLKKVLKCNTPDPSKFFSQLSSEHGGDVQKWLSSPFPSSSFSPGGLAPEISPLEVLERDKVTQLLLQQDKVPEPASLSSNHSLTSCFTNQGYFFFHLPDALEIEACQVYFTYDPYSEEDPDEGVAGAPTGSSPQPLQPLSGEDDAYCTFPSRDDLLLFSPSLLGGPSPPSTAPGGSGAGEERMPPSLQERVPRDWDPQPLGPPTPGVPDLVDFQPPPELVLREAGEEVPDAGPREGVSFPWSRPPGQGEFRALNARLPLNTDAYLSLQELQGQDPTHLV
T1 sequence (looked up) 2: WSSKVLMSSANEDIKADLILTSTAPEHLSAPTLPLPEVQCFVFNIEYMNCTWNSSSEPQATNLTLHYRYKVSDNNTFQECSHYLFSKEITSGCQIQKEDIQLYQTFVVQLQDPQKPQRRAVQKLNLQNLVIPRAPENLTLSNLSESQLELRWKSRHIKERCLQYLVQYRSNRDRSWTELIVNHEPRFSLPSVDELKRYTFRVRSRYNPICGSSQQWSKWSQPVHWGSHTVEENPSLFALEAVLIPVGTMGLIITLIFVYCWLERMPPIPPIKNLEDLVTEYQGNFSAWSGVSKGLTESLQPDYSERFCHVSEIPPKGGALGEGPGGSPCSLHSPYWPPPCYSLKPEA
Procedure: (§1) The following cell lines were suspended in growth medium to 0.7*10\hat{ }6 cells/mL and, cultured for 16 hrs: 1) untransduced 32D (parental line); 2) 32D[pRF770+pRF791]; and 3) 32D[pRF770+pRF791] grown in the presence of 1 ug/mL doxycycline, to induce PD-1 expression. Cultures were then resuspended to a final concentration of 1.0*10\hat{ }6 cells/mL, and 0.1 mL of each suspension was plated into separate wells of a 96-well round-bottom plate, of sufficient number required for the experiment. Each Alexa647-labeled antibody or antibody-cytokine chimeric proteins were then added to a unique well to obtain a final concentration of 500 nM, 100 nM, […], 1 nM, 0.1 nM, 0.01 nM, or 0.001 nM in a given well. Plates were incubated at 4° C. for 30′, and then the cells were pelleted by centrifugation (300×g, 5′) and resuspended in 0.2 mL of PBS. This wash step was repeated twice. Upon final resuspension, the cells were analyzed on an LSRII flow cytometer. Data were analyzed using FlowJo version 10.

[2] = target: T2, mouse PD-1 on doxycycline-induced 32D[pRF770+pRF791] cells (mouse, UniProt Q02242 25-288); assay: flow cytometry, Alexa647-labelled protein on doxycycline-induced 32D[pRF770+pRF791] cells, 4 C 30 min, % A647-positive cells
T2 construct: whole, on cells; also called PD-1+ cells; [pRF770+pRF791]+Dox
T2 sequence (looked up): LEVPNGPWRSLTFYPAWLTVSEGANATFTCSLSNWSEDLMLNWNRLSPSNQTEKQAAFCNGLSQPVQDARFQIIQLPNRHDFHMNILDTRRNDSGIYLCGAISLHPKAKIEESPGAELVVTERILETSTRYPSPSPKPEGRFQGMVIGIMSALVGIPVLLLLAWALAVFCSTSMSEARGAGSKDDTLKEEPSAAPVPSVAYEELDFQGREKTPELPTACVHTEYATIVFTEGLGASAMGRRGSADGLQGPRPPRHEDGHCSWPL
Procedure: as §1

human IL-15Rα = target: T3, human IL-15Rα (human, UniProt Q13261 31-205, limits assumed); assay: SPR 37C, fusion captured by anti-human Fc
T3 construct: also called hIL-15Rα; IL-15 receptor alpha
Outline: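 Anti-PD-1–hIL-15 fusions captured at 10 μg/mL on an anti-human Fc surface, receptor injected at 37 °C in HEPES-buffered saline with 0.05% Tween-20 and 1 mg/mL BSA, pH 7.4; 5 min dissociation.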

[3] = target: T1, IL-15 signaling receptor on …; assay: cell-based or functional assay
[4] = target: T2, mouse PD-1 on doxycycline-induced …; assay: cell-based or functional assay
[5] = target: T1, IL-15 signaling receptor on …; assay: cell-based or functional assay; remark: listed apart in the source
[6] = target: T2, mouse PD-1 on doxycycline-induced …; assay: cell-based or functional assay; remark: listed apart in the source
[7] = target: T1, IL-15 signaling receptor on …; assay: cell-based or functional assay; remark: listed apart in the source
[8] = target: T2, mouse PD-1 on doxycycline-induced …; assay: cell-based or functional assay; remark: listed apart in the source
[9] = target: T2, mouse PD-1 on doxycycline-induced …; assay: flow cytometry, Alexa647-labelled protein on doxycycline-induced 32D[pRF770+pRF791] cells (mouse PD-1 together with CD122 plus CD132), 4 C 30 min, % A647-positive cells
Procedure: as §1

human IL-2Rβ = target: T4, human IL-2Rβ (human, UniProt P14784 27-240, limits assumed); assay: SPR, steady state, fusion captured
T4 construct: also called hIL-2Rβ; IL-2 receptor beta
T4 sequence (looked up): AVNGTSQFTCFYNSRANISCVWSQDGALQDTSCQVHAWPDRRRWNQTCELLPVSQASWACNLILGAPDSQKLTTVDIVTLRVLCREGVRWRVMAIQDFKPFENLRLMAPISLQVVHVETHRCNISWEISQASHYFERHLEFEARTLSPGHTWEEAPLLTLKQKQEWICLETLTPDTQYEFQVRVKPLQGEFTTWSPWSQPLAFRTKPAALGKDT
Procedure: Anti-human Fc sensor chips were prepared at 25° C. with a running buffer of 10 mM HEPES, 150 mM NaCl, 0.05% (v/v) Tween-20, pH 7.4. All surfaces of a Biacore CM4 sensor chip were activated with a 1:1 (v/v) mixture of 400 mM EDC and 100 mM NHS for 7 minutes, at a flow rate of 10 μL/min. An anti-human Fc reagent (Goat anti-human IgG Fc-γ specific, SouthernBiotech, Birmingham, Ala., Catalog #2014-01) was diluted to 50 μg/mL in 10 mM sodium acetate (pH 4.5) and injected on all flow cells for 7 minutes at 20 μL/min. All flow cells were blocked with 100 mM ethylenediamine in 200 mM Borate buffer pH 8.5 for 7 minutes at 10 μL/min.
All protein interaction experiments were performed at 37° C. using a running buffer of 10 mM HEPES, 150 mM NaCl, 0.05% (v/v) Tween-20, pH 7.4, 1 mg/mL BSA. Anti-PD-1-hIL-15 fusion proteins were captured at 10 μg/mL at a flow rate of 10 μL/min for 2 minutes. Different fusion proteins were captured in flow cells 2, 3 and 4. No protein was captured onto flow cell 1 which was used as a reference surface. […] After each analyte injection, dissociation was monitored for 5 minutes followed by regeneration of all flow cells with three 60-second injections of 75 mM phosphoric acid. […] For kinetic analysis, the double-referenced sensorgrams were fit globally to a simple 1:1 Langmuir with mass transport binding model using Biacore T200 Evaluation Software version 2.0. For steady-state affinity analysis, the double-referenced equilibrium binding responses were fit with a 1:1 Langmuir steady-state model using Biacore T200 Evaluation Software version 2.0.

[10] = target: T1, IL-15 signaling receptor on …; assay: cell-based or functional assay; remark: listed apart in the source
[11] = target: T2, mouse PD-1 on doxycycline-induced …; assay: cell-based or functional assay; remark: listed apart in the source

T3 sequence (Q13261 31-205 limits assumed): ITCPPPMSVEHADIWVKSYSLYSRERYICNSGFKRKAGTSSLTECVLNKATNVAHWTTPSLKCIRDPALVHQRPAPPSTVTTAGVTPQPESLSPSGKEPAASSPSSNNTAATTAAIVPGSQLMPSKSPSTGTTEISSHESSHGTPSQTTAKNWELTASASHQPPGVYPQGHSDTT

B1: xmPD-1 (antibody, human IgG2, kappa, V domains shown)
VH: EVQLVESGGGLVKPGGSLELSCAASGFTFSSYWMSWVRQAPEKGLEWVAAISPSGGSTYYADSVKGRFTISRDNAKNTLFLQMTSLRSEDTAMYYCAKESWGAYYDLWGQGTTVTVSS
VL: DIVMTQSPSSLSVSAGDKVTMSCRASQGISSWLAWYQQKPWQPPKLLIYKASTLESGVPDRFTGSGSGTDFTLTISSVQAEDLAVYYCQQSYSTPWTFGGGTKLEIKG
notes: human IgG2dA constant regions; also called anti-mouse PD-1 antibody; clone F12.3
- binding result [1]: no binding (tested: 500 nM)
- EC50 (read off the curve) [2]: ~0.03 nM

B2: xmPD-1-hIL15 NQ mutant (other)
heavy 1: HHHHHHHHGGGGSGSGGEVQLVESGGGLVKPGGSLELSCAASGFTFSSYWMSWVRQAPEKGLEWVAAISPSGGSTYYADSVKGRFTISRDNAKNTLFLQMTSLRSEDTAMYYCAKESWGAYYDLWGQGTTVTVSSASTKGPSVFPLAPCSRSTSESTAALGCLVKDYFPEPVTVSWNSGALTSGVHTFPAVLQSSGLYSLSSVVTVPSSNFGTQTYTCNVDHKPSNTKVDKTVERKCRVRCPRCPAPPVAGPSVFLFPPKPKDTLMISRTPEVTCVVVAVSHEDPEVQFNWYVDGVEVHNAKTKPREEQFNSTFRVVSVLTVVHQDWLNGKEYKCKVSNKGLPSSIEKTISKTKGQPREPQVYTLPPSREEMTKNQVSLTCLVKGFYPSDIAVEWESNGQPENNYKTTPPMLDSDGSFFLYSRLTVDKSRWQQGNVFSCSVMHEALHNHYTQKSLSLSPGK
heavy 2: EVQLVESGGGLVKPGGSLELSCAASGFTFSSYWMSWVRQAPEKGLEWVAAISPSGGSTYYADSVKGRFTISRDNAKNTLFLQMTSLRSEDTAMYYCAKESWGAYYDLWGQGTTVTVSSASTKGPSVFPLAPCSRSTSESTAALGCLVKDYFPEPVTVSWNSGALTSGVHTFPAVLQSSGLYSLSSVVTVPSSNFGTQTYTCNVDHKPSNTKVDKTVERKCEVECPECPAPPVAGPSVFLFPPKPKDTLMISRTPEVTCVVVAVSHEDPEVQFNWYVDGVEVHNAKTKPREEQFNSTFRVVSVLTVVHQDWLNGKEYKCKVSNKGLPSSIEKTISKTKGQPREPQVYTLPPSREEMTKNQVSLTCEVKGFYPSDIAVEWESNGQPENNYKTTPPMLDSDGSFFLYSKLTVDKSRWQQGNVFSCSVMHEALHNHYTQKSLSLSPGSGGGGGTATATPGANWVNVISDLKKIEDLIQSMHINATLFTESDVHPSCKVTAMKCFLLQLQVISLQSGDASIHDTVENLIILANNSLSSNGNVTESGCKECQELEQKNIKEFLQSFVHIVQMFINT
light: DIVMTQSPSSLSVSAGDKVTMSCRASQGISSWLAWYQQKPWQPPKLLIYKASTLESGVPDRFTGSGSGTDFTLTISSVQAEDLAVYYCQQSYSTPWTFGGGTKLEIKGTVAAPSVFIFPPSDEQLKSGTASVVCLLNNFYPREAKVQWKVDNALQSGNSQESVTEQDSKDSTYSLSSTLTLSKADYEKHKVYACEVTHQGLSSPVTKSFNRGEC
notes: also called xmPD-1-IL15 NQ; xmPD1-IL15 NQ
- binding result (human IL-15Rα): no binding (tested: 3000 nM)
- pSTAT5 EC50 on PD-1(low) 32D reporter cells [3]: 7.29 nM
- Fold change = EC50 (PD-1(low))/EC50 (PD-1+) [4]: 241 fold
- pSTAT5 EC50 on PD-1+ 32D reporter cells [4]: 0.0303 nM
- pSTAT5 EC50 on PD-1(low) 32D reporter cells [5]: 21.1 nM
- Fold change = EC50 (PD-1(low))/EC50 (PD-1+) [6]: 223 fold
- pSTAT5 EC50 on PD-1+ 32D reporter cells [6]: 0.09 nM
- pSTAT5 EC50 on PD-1(low) 32D reporter cells [7]: 1.72 nM
- Fold change = EC50 (PD-1(low))/EC50 (PD-1+) [8]: 300 fold
- pSTAT5 EC50 on PD-1+ 32D reporter cells [8]: 0.00574 nM
- EC50 (read off the curve) [9]: ~0.03 nM
- Kd (human IL-2Rβ): 518 nM
- pSTAT5 EC50 on PD-1(low) 32D reporter cells [10]: 13.3 nM
- Fold change = EC50 (PD-1(low))/EC50 (PD-1+) [11]: 1230 fold
- pSTAT5 EC50 on PD-1+ 32D reporter cells [11]: 0.0109 nM
